The subject of data set [1] is αvβ3 integrin. The settings on record: pig, in vivo. An excerpt:
Subsequently, the pigs were euthanized and their hearts were excised. Based on 1% 2,3,5-triphenyltetrazolium chloride (TTC) (Sigma-Aldrich, Saint Louis, MO, USA) staining, tissue samples were obtained from the injured ischemic (TTC negative) and adjacent viable ischemic (TTC positive) myocardium as well as from the remote non-ischemic myocardium. Autoradiography of myocardial tissue sections was used to compare [^68Ga]NODAGA-RGD uptake with the histology, αvβ3 integrin expression and CD31 on endothelial cells. Tissue samples were frozen in isopentane mixed with dry ice and cut into serial 40 and 7 µm sections for autoradiography and immunohistochemical stainings respectively, using a cryomicrotome. Tissue sections of 40 μm thickness were immediately exposed on a phosphor imaging plate (BAS-TR2025, Fuji Photo Film Co. Ltd., Tokyo, Japan) for 2 h. The distribution of radioactivity on the plate was visualized and quantified using a Fluorescent Image Analyzer (Fujifilm FLA-5100, Fuji Photo Film Co. Ltd., Tokyo, Japan). Autoradiographs and hematoxylin & eosin (HE) staining images of the same sections were co-registered and [^68Ga]NODAGA-RGD accumulation was measured by drawing ROIs covering remote myocardium, and either viable or injured ischemic myocardium using TINA™ 2.10f software (Raytest Isotopenmessgeräte GmbH., Straubenhardt, Germany). Results were expressed as photostimulated luminescence per square millimetre (PSL/mm^2) and normalized for the injected radioactivity dose, animal weight and the radioactivity decay. Serial tissue sections of 7 μm were stained with H&E for general histology, Masson’s trichrome for differentiation myocytes and collagenous scar, and immunohistochemistry with antibodies against of CD31 on endothelial cells (dilution 1:250, Thermo Scientific, Cheshire, UK), αvβ3 integrin (dilution 1:200, Millipore, Temecula, CA, USA) and α-smooth muscle actin on myofibroblasts (dilution 1:30,000, Sigma-Aldrich, St. Louis, MO, USA). […]

Data set [2] in a line: in vivo. The settings on record: Finnish landrace, pig, iv, total radioactivity. The protocol:
(§1) Coronary stenosis was created in 11 domestic, 3-month old pigs weighing 30–35 kg by implanting a bottleneck stent in the proximal LAD coronary artery as described previously. In addition, a sham group of 4 pigs underwent a catheterization procedure without the stent implantation. Myocardial [^68Ga]NODAGA-RGD uptake was evaluated by PET 13 ± 4 days after the stent implantation. […] Three pigs without a perfusion defect during adenosine stress were considered as procedural failures and excluded from further in vivo analyses.
(§2) Then a [^68Ga]NODAGA-RGD PET was performed with an ECAT EXACT HR+ scanner (Siemens-CTI, Knoxville, TN, USA). The studies were started with a 10 min transmission scan. The dynamic scanning started at the same time as 310 ± 43 MBq (230–400 MBq) of [^68Ga]NODAGA-RGD was injected via the ear vein. The acquisition time frames were as follows: 18 × 10 s, 4 × 30 s, 2 × 120 s, 1 × 180 s, 4 × 300 s, 3 × 600 s (total duration 62 min). The acquired [^68Ga]NODAGA-RGD PET data were corrected for scatter, random counts, and dead time and iteratively reconstructed with ordered-subsets expectation maximization (OSEM) algorithm using 2 iterations and 32 subsets. The whole transaxial field of view (70 cm) was reconstructed in 256 × 256 matrix yielding to pixel size of 2.57 mm × 2.57 mm. The device produces 63 axial planes with a slice thickness of 2.43 mm.
(§3) For quantification of [^68Ga]NODAGA-RGD uptake in the myocardium, the [^15O]water images and the [^68Ga]NODAGA-RGD images were co-registered using the high blood pool activity of the [^68Ga]NODAGA-RGD as a landmark (Fig. 1). The myocardial contours from the [^15O]water images were copied to the co-registered [^68Ga]NODAGA-RGD data. Then, the polar maps of [^68Ga]NODAGA-RGD uptake expressed as standardized uptake value (SUV) (time frame 52–62 min after injection) in the LV myocardium were generated using matching image orientation and sampling points. The region of interest (ROI) defining the ischemic area was copied from the [^15O]water polar maps to measure [^68Ga]NODAGA-RGD uptake in this region. The septum was excluded from the measurements to prevent spillover from the blood in the right ventricle. The mean and maximum SUVs were determined from the ischemic area. In order to measure the SUVs, ROI was modified to include only the mid-myocardium in order to avoid spill-over from blood. The maximum SUV within the ROI was determined from area showing visually the highest uptake. One segment in the posterolateral wall (segment 11) that was always outside the ischemic area was used to measure [^68Ga]NODAGA-RGD uptake in the remote myocardium. The ischemic-to-remote SUV ratio was calculated in the ischemic area and remote myocardium.

For data set [3], the system named is αvβ3 integrin. The experiment in a line: in vivo. Particulars: pig. The procedure: as §1, §2, §3
Data set [4] in a line: in vitro. Type of data set: in vitro ADME. Particulars: plasma. The procedure: To evaluate species-dependent differences, the [^68Ga]NODAGA-RGD binding to human, pig and rat plasma proteins was measured using in vitro assay as described previously.
In data set [5] the test system is αvβ3 integrin. Particulars: pig, in vivo. An excerpt:
Subsequently, the pigs were euthanized and their hearts were excised. Based on 1% 2,3,5-triphenyltetrazolium chloride (TTC) (Sigma-Aldrich, Saint Louis, MO, USA) staining, tissue samples were obtained from the injured ischemic (TTC negative) and adjacent viable ischemic (TTC positive) myocardium as well as from the remote non-ischemic myocardium. Autoradiography of myocardial tissue sections was used to compare [^68Ga]NODAGA-RGD uptake with the histology, αvβ3 integrin expression and CD31 on endothelial cells. Immediately after the PET scanning, the animals were sacrificed by an i.v. injection of potassium chloride (B. Braun Medical Oy, Helsinki, Finland). The heart was excised, the LV was cut into 4 short axis slices from base to apex that were incubated for 15 min in 1% TTC (Sigma-Aldrich, Saint Louis, MO, USA), diluted in phosphate-buffered saline (pH 7.4) at 37 °C, photographed from both sides and the presence of non-viable ischemic area was confirmed visually. Based on the TTC staining, transmural samples containing non-viable and immediately adjacent viable myocardium were collected from the LV wall corresponding to the ischemic area in PET images. Another sample was obtained from the posterior LV wall representative of the remote region (segment number 11). Myocardial samples and a blood sample were weighed and measured for radioactivity using the gamma counter (Wizard). The radioactivity concentration was expressed as standardized uptake values (SUV = ([tissue radioactivity/tissue weight]/[total given radioactivity/animal body weight])).
This is another data set of the same source.

A short description of data set [6]: in vivo. Particulars: pig, iv, total radioactivity. The protocol: During the [^68Ga]NODAGA-RGD PET imaging, blood samples (2 ml) were obtained into heparinized tubes from the femoral artery 2, 5, 10, 20, 30, 40, 50 and 60 min after the injection of [^68Ga]NODAGA-RGD for the measurements of total radioactivity, radiometabolites (proportion of authentic tracer), and plasma-to-blood ratio. The radioactivities of whole blood and blood plasma were measured using a gamma counter (1480 Wizard 3″; PerkinElmer, Turku, Finland).

Marks after values point to notes of the source that are not given here.

This note sets out measurements from article PMC5477135, “Imaging of αvβ3 integrin expression in experimental myocardial ischemia with [^68Ga]NODAGA-RGD positron emission tomography” (Journal of Translational Medicine, 2017).

The fraction unbound is free concentration divided by total concentration.

In the case of `N=C(N)NCCC[C@@H]1NC(=O)[C@H](CCCCNC(=O)CCC(C(=O)O)N2CCN(CC(=O)O)CCN(CC(=O)O)CC2)NC(=O)[C@@H](Cc2ccc(O)cc2)NC(=O)[C@H](CC(=O)O)NC(=O)CNC1=O` (stereo partly shown) [[^68Ga]NODAGA-RGD, metal not drawn], in data set [1], the “mean uptake by autoradiography, injured area” value came out at 4.6 ± 2.1 PSL/mm^2; the “mean uptake by autoradiography, remote area” value amounted to 1.8 ± 0.61 PSL/mm^2; the “mean uptake by autoradiography, viable ischemic area” value turned out to be 2.2 ± 0.85 PSL/mm^2. In data set [2], the SUV came to 1.3 ± 0.2 SUV. In addition, in data set [3], the “average myocardial uptake in the ischemic area higher than in the remote myocardium” value is recorded as 26%; the “average uptake in the LV myocardium (SUV)” value worked out at 0.42 ± 0.10 SUV; the “uptake in anteroseptal wall (segments 7 and 13) (SUV)” value amounted to 0.39 ± 0.11 SUV; the “uptake in posterolateral wall (segment 11) (SUV)” value is 0.36 ± 0.078 SUV. In data set [3] (iv), the “Injured area SUVMax” value was 0.80 ^† SUV and the “Ischemic area SUVMean” value was 0.61* SUV. The fraction unbound in data set [4] (pig) was 0.93 ± 0.017. This molecule had a fraction unbound in data set [4] (rat) of 0.94 ± 0.011. Further, in data set [5], the “radioactivity in tissue sample from injured myocardium (SUV)” value is 0.79 ± 0.21 SUV, the “radioactivity in tissue sample from remote myocardium (SUV)” value came to 0.49 ± 0.21 SUV and the “radioactivity in tissue sample from viable ischemic myocardium (SUV)” value is 0.49 ± 0.17 SUV. For the same molecule, the tissue to tissue ratio in data set [6] amounted to 1.4 ± 0.1.
